Measurements from patent US20130064833A1.

Target: hepatocyte growth factor receptor (HGFR) (UniProt P08581)
Assay: cell-based or functional assay

Chain of UniProt P08581 (P08581 25-1390 limits assumed): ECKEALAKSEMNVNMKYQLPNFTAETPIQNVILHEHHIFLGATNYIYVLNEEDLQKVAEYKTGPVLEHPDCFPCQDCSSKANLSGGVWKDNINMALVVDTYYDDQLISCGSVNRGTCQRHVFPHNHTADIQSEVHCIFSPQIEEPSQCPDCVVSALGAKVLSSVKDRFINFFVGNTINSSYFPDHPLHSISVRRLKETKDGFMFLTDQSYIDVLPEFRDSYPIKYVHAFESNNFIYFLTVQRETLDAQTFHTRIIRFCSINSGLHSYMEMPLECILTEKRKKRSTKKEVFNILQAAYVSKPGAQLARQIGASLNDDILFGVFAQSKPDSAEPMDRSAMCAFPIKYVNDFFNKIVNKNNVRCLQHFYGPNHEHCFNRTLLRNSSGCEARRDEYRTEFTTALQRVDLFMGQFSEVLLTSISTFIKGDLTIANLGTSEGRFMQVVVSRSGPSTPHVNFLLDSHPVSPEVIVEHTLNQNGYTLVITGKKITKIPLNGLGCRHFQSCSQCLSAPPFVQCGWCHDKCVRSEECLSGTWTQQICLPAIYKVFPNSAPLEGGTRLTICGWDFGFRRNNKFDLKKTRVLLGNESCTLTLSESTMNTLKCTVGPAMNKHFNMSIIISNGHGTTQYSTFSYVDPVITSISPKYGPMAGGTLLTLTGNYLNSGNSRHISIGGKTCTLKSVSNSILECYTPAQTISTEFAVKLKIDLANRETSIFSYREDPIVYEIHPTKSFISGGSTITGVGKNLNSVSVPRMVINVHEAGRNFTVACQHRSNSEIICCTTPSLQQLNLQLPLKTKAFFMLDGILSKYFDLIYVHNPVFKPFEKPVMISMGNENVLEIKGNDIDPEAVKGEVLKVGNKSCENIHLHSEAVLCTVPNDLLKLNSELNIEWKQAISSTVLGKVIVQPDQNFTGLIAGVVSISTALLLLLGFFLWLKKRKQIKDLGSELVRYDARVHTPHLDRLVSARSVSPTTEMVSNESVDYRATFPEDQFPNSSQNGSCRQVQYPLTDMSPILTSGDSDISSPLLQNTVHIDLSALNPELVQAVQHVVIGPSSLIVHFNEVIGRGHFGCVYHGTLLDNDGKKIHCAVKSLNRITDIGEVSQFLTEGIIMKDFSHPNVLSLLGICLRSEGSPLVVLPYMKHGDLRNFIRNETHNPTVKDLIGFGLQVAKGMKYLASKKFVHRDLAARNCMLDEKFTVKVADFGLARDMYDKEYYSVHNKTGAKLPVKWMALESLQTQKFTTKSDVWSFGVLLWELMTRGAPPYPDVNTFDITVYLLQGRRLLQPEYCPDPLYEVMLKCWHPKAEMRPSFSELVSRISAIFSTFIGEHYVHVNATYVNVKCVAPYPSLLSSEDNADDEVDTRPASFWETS

LEC proliferation, minimal effective concentration: 1 ng/mL
Substance: hepatocyte growth factor (HGF) (ligand)
